From patent publication US20040141968A1

Experiments:
[1] = target: recombinant soluble CMV envelope glycoprotein B (human cytomegalovirus) (UniProt P13201); assay: SPR (Biacore); DC-SIGN CRD injected over immobilised CMV gB; from koff/kon
[2] = target: recombinant soluble CMV envelope glycoprotein B (human cytomegalovirus) (UniProt P13201); assay: SPR (Biacore); DC-SIGN CRD injected over immobilised CMV gB; Langmuir fit, average

Sequence of recombinant soluble CRD of DC-SIGN (amino acids 254-404) (Q9NNX6 254-404 limits assumed): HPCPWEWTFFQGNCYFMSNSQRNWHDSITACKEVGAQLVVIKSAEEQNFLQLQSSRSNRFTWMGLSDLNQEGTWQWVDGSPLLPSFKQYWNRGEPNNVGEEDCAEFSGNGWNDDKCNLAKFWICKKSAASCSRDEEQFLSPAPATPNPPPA

## recombinant soluble CRD of DC-SIGN (amino acids 254-404) (from UniProt Q9NNX6 254-404) (receptor)
[1]
  Kd: 290 nM
[2]
  koff: 0.00126 s⁻¹
  kon: 4400 M⁻¹ s⁻¹
